Experimental data taken from patent publication US7579445.

Tests used:
[1] = biological target: surface of Line-1-PSA cells (PSA-transfected Balb/cByJ lung carcinoma cell line); experiment: FACS on Line 1-PSA cells; negative control 4
[2] = biological target: surface of P815-PSA cells (PSA-transfected DBA/2 mastocytoma cell line); experiment: FACS on P815-PSA cells; negative control 3
[3] = biological target: surface of Line-1-PSA cells (PSA-transfected Balb/cByJ lung carcinoma cell line); experiment: FACS on Line 1-PSA cells; negative control 7
[4] = biological target: surface of P815-PSA cells (PSA-transfected DBA/2 mastocytoma cell line); experiment: FACS on P815-PSA cells; negative control 5

## MOPC-21 (antibody)
[1]
  mean fluorescence: 5
[2]
  mean fluorescence: 11
[3]
  mean fluorescence: 8
[4]
  mean fluorescence: 37
